We go through 6 molecules from article PMC10397247.

One test addresses T1, P9A-bP.
T1 chain: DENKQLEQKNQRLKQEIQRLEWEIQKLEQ
Nature of the test: two-hybrid library CCNG1.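 Further: natural log of median RNA to DNA barcode read ratio; higher means stronger binding.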

The next test addresses T2, P8A-bP.
T2 chain: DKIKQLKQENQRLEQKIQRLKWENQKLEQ
The test can be described thus: two-hybrid library CCNG1.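 Further: natural log of median RNA to DNA barcode read ratio; higher means stronger binding.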

Another test has as its target T3, 4H3134-AA.
T3 chain: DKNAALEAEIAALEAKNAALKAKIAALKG
The test can be described thus: two-hybrid library CCmax.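 Further: natural log of median RNA to DNA barcode read ratio; higher means stronger binding.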 As to conditions: mean of both orientations.

Another test deals with T4, 4H510-AA.
T4 chain: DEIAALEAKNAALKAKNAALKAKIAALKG
Nature of the test: two-hybrid library CCmax.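 Further: natural log of median RNA to DNA barcode read ratio; higher means stronger binding.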 As to conditions: mean of both orientations.

The next test concerns the target T5, 4H87-AA.
T5 chain: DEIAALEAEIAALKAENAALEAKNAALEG
The test can be described thus: two-hybrid library CCmax. Conditions: mean of both orientations.

Another test concerns the target T6, 4H3625-AA.
T6 chain: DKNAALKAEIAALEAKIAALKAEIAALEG
The test can be described thus: two-hybrid library CCmax. Conditions: mean of both orientations.

For a further test, the target named is T7, 4H775-AA.
T7 chain: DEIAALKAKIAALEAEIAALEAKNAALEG
Nature of the test: two-hybrid library CCmax. Conditions: mean of both orientations.

A further test deals with T8, 4H278-AA.
T8 chain: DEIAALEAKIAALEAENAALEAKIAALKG
Nature of the test: two-hybrid library CCmax. As to conditions: mean of both orientations.

The target in the next test is T9, 4H2705-AA.
T9 chain: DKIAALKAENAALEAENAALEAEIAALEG
Nature of the test: two-hybrid library CCmax. As to conditions: mean of both orientations.

The next test addresses T10, 4H3409-AA.
T10 chain: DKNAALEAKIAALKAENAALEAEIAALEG
The test can be described thus: two-hybrid library CCmax. Conditions: mean of both orientations.

Another test deals with T11, 4H816-AA.
T11 chain: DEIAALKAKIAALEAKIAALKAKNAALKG
The test can be described thus: two-hybrid library CCmax. As to conditions: mean of both orientations.

A further test has as its target T12, 4H2758-AA.
T12 chain: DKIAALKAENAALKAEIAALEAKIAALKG
Nature of the test: two-hybrid library CCmax. Conditions: mean of both orientations.

A further test addresses T13, 4H2985-AA.
T13 chain: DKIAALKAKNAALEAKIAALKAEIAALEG
The test can be described thus: two-hybrid library CCmax. Conditions: mean of both orientations.

The target in another test is T14, 4H2687-AA.
T14 chain: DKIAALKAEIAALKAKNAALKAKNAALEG
Nature of the test: two-hybrid library CCmax.

A further test deals with T15, 4H390-AA.
T15 chain: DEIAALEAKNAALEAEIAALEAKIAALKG
The test can be described thus: two-hybrid library CCmax. As to conditions: mean of both orientations.

A further test concerns the target T16, 4H2873-AA.
T16 chain: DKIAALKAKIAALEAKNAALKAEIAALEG
The test can be described thus: two-hybrid library CCmax. As to conditions: mean of both orientations.

Another test has as its target T17, 4H3940-AA.
T17 chain: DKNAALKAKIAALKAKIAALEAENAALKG
The test can be described thus: two-hybrid library CCmax. As to conditions: mean of both orientations.

The next test deals with T18, P6SC1.
T18 chain: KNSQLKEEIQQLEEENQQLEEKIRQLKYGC
Nature of the test: two-hybrid library CC1. As to conditions: mean of both orientations.

For another test, the target named is T19, P5mS.
T19 chain: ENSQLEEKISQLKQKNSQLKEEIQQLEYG
The test can be described thus: two-hybrid library CC1. As to conditions: mean of both orientations.

In a further test the target is T20, P6.
T20 chain: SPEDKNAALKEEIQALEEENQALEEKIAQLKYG
The test can be described thus: two-hybrid library CC1. Conditions: mean of both orientations.

A further test has as its target T21, P5SC2.
T21 chain: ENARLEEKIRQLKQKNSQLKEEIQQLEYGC
The test can be described thus: two-hybrid library CC1.

A further test deals with T22, P8.
T22 chain: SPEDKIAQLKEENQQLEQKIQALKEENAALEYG
The test can be described thus: two-hybrid library CC1. As to conditions: mean of both orientations.

The target of another test is T23, P7mS.
T23 chain: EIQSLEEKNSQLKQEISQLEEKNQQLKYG
The test can be described thus: two-hybrid library CC1. Conditions: mean of both orientations.

For another test, the target named is T24, P6mS.
T24 chain: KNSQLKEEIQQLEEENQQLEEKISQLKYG
Nature of the test: two-hybrid library CC1. Conditions: mean of both orientations.

Another test concerns the target T25, P6SC2.
T25 chain: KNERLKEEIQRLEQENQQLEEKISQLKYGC
The test can be described thus: two-hybrid library CC1. As to conditions: mean of both orientations.

A further test concerns the target T26, P9.
T26 chain: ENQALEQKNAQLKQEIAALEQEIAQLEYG
Nature of the test: two-hybrid library CC1. Conditions: mean of both orientations.

For another test, the target named is T27, P8mS.
T27 chain: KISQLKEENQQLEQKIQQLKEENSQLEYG
The test can be described thus: two-hybrid library CC1. As to conditions: mean of both orientations.

The next test addresses T28, P7.
T28 chain: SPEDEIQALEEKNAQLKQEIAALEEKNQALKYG
Nature of the test: two-hybrid library CC1. Conditions: mean of both orientations.

The next test has as its target T29, P7A-bP.
T29 chain: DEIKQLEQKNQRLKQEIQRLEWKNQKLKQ
Nature of the test: two-hybrid library CCNG1.

For a further test, the target named is T30, 4H319-bN.
T30 chain: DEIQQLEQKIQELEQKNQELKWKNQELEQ
The test can be described thus: two-hybrid library CCNG1.

In the next test the target is T31, 4H3277-bN.
T31 chain: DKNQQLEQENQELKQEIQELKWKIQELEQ
The test can be described thus: two-hybrid library CCNG1.

The target of another test is T32, 4H477-bN.
T32 chain: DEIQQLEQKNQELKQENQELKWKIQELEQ
The test can be described thus: two-hybrid library CCNG1.

Another test concerns the target T33, 4H348-bN.
T33 chain: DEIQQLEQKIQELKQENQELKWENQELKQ
Nature of the test: two-hybrid library CCNG1.

The next test addresses T34, 4H2915-bN.
T34 chain: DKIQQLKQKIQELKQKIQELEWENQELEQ
Nature of the test: two-hybrid library CCNG1.

The target of a further test is T35, 4H3057-bN.
T35 chain: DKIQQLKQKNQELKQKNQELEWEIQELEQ
Nature of the test: two-hybrid library CCNG1.

A further test deals with T36, 4H741-bN.
T36 chain: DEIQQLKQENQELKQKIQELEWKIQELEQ
Nature of the test: two-hybrid library CCNG1.

Another test deals with T37, 4H2692-bN.
T37 chain: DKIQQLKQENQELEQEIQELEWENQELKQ
The test can be described thus: two-hybrid library CCNG1.

Another test deals with T38, 4H2717-bN.
T38 chain: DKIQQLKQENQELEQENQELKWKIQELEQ
The test can be described thus: two-hybrid library CCNG1.

In the next test the target is T39, 4H918-bH.
T39 chain: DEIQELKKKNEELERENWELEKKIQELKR
The test can be described thus: two-hybrid library CCNG1.

For another test, the target named is T40, 4H40-bN.
T40 chain: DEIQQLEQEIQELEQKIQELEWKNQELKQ
The test can be described thus: two-hybrid library CCNG1.

A further test addresses T41, 4H492-bN.
T41 chain: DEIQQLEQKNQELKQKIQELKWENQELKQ
The test can be described thus: two-hybrid library CCNG1.

Another test has as its target T42, 4H2839-bN.
T42 chain: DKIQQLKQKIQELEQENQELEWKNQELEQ
The test can be described thus: two-hybrid library CCNG1.

The target in another test is T43, 4H2702-bN.
T43 chain: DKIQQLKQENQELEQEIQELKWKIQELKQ
The test can be described thus: two-hybrid library CCNG1.

Another test concerns the target T44, 4H4073-bN.
T44 chain: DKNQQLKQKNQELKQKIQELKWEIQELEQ
The test can be described thus: two-hybrid library CCNG1.

The next test deals with T45, 4H968-bN.
T45 chain: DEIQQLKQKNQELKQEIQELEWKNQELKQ
Nature of the test: two-hybrid library CCNG1.

The next test deals with T46, 4H683-bN.
T46 chain: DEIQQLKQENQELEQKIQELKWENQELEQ
Nature of the test: two-hybrid library CCNG1.

Another test addresses T47, 4H3112-bN.
T47 chain: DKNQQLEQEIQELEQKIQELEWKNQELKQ
Nature of the test: two-hybrid library CCNG1.

The target of another test is T48, 4H3926-bN.
T48 chain: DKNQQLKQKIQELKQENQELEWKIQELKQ
Nature of the test: two-hybrid library CCNG1.

A further test has as its target T49, 4H575-bN.
T49 chain: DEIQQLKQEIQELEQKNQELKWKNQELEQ
Nature of the test: two-hybrid library CCNG1.

Another test deals with T50, 4H346-bN.
T50 chain: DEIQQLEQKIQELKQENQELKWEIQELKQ
The test can be described thus: two-hybrid library CCNG1.

A further test concerns the target T51, 4H918-bN.
T51 chain: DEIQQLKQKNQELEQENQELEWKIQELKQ
The test can be described thus: two-hybrid library CCNG1.

In a further test the target is T52, 4H855-bN.
T52 chain: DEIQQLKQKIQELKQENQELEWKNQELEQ
Nature of the test: two-hybrid library CCNG1.

The target in a further test is T53, 4H754-bN.
T53 chain: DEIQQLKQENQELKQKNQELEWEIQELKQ
The test can be described thus: two-hybrid library CCNG1.

A further test concerns the target T54, 4H953-bN.
T54 chain: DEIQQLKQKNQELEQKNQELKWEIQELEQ
The test can be described thus: two-hybrid library CCNG1.

The next test concerns the target T55, 4H797-bN.
T55 chain: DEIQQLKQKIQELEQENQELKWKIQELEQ
The test can be described thus: two-hybrid library CCNG1.

For another test, the target named is T56, 4H780-bN.
T56 chain: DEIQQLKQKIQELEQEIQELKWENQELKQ
Nature of the test: two-hybrid library CCNG1.

A further test deals with T57, 4H457-bN.
T57 chain: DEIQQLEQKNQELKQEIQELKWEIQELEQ
Nature of the test: two-hybrid library CCNG1.

The target in the next test is T58, 4H3427-bN.
T58 chain: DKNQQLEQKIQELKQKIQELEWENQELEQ
Nature of the test: two-hybrid library CCNG1.

For another test, the target named is T59, 4H3010-bN.
T59 chain: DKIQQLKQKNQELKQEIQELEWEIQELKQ
The test can be described thus: two-hybrid library CCNG1.

B1: P8A-bP (peptide)
chain: DKIKQLKQENQRLEQKIQRLKWENQKLEQ
On to B1, for which the interaction score with P9A-bP was 0; with P8A-bP, -0.396.

B2: 4H2687-AA (peptide)
chain: DKIAALKAEIAALKAKNAALKAKNAALEG
With B2, the interaction score is -1.43 with 4H3134-AA; -1.76 in the test with 4H510-AA; 1.53 with 4H87-AA; -0.539 in the test with 4H3625-AA; -0.777 with 4H775-AA; 1.88 with 4H278-AA. Further, the interaction score in the test with 4H2705-AA was -1.7; with 4H3409-AA it was -0.818; in the test with 4H816-AA it was -1.46; with 4H2758-AA, -1.78; in the test with 4H2985-AA it was -1.59; with 4H2687-AA it was -0.386. For the same molecule, the interaction score with 4H390-AA was -1.43; with 4H2873-AA, -1.74; in the test with 4H3940-AA, -1.7.

B3: P5SC2 (peptide)
chain: ENARLEEKIRQLKQKNSQLKEEIQQLEYGC
In the case of B3, the interaction score with P6SC1 was 0.316; in the test with P5mS it was -2.94; with P6, 0.225; with P5SC2 it was -2.86; with P8 it was -1.1; with P7mS, -2.77. In addition, the interaction score was 0.24 with P6mS; 0.408 with P6SC2; -2.39 with P9; -2.45 in the test with P8mS; -2.39 with P7.

B4: P7A-bP (peptide)
chain: DEIKQLEQKNQRLKQEIQRLEWKNQKLKQ
For B4, the results for the interaction score with P7A-bP, in the test with P9A-bP and in the test with P8A-bP were -1.33, -0.571 and 1.1, respectively.

B5: 4H2692-bN (peptide)
chain: DKIQQLKQENQELEQEIQELEWENQELKQ
For B5, the interaction score was -0.482 with 4H319-bN; -0.49 with 4H3277-bN; -0.405 with 4H477-bN; 0.502 with 4H348-bN; -0.419 with 4H2915-bN; 0.294 with 4H3057-bN. Also, the interaction score was -0.795 with 4H741-bN; 0.234 with 4H2692-bN; -0.423 with 4H2717-bN; 1.17 with 4H918-bH; -0.333 with 4H40-bN; 1.22 with 4H492-bN. This molecule registered an interaction score in the test with 4H2839-bN of -0.832.

B6: 4H2702-bN (peptide)
chain: DKIQQLKQENQELEQEIQELKWKIQELKQ
Consider B6, for which the interaction score in the test with 4H2702-bN is 1.44; in the test with 4H4073-bN it was 2.14; in the test with 4H968-bN, 1.31; with 4H683-bN it was 0.0387; with 4H3112-bN, -0.298; in the test with 4H3926-bN it was 0.223. The interaction score in the test with 4H575-bN was -0.212; with 4H346-bN it was -0.668; with 4H918-bN it was -0.128; in the test with 4H855-bN, -1.49; in the test with 4H754-bN, -1.18; with 4H953-bN, -0.0124. The interaction score with 4H797-bN is 0.189; in the test with 4H780-bN, -0.44; in the test with 4H457-bN, 1.25; with 4H3427-bN it was -0.588; in the test with 4H3010-bN it was 2.05.
